According to PMC11861356:

Target: IRF3 (UniProt Q14653)
Assay: co-immunoprecipitation of tagged proteins, immunoblot
Settings: reference: wild-type TBK1; sites Y174

- binding against the reference: weaker
Substance: TBK1 (from UniProt Q9UHD2) TBK1 Y174F
